This experiment has as its target TT (tetanus toxin / tetanus toxoid) (UniProt P04958 2-1315). Kind of experiment: ELISA of hybridoma clones. In general terms: In an ELISA, binding on a coated surface is turned into a signal by an enzyme label.

Chain of TT (tetanus toxin / tetanus toxoid) (P04958 2-457 limits assumed, chain 1 of 2): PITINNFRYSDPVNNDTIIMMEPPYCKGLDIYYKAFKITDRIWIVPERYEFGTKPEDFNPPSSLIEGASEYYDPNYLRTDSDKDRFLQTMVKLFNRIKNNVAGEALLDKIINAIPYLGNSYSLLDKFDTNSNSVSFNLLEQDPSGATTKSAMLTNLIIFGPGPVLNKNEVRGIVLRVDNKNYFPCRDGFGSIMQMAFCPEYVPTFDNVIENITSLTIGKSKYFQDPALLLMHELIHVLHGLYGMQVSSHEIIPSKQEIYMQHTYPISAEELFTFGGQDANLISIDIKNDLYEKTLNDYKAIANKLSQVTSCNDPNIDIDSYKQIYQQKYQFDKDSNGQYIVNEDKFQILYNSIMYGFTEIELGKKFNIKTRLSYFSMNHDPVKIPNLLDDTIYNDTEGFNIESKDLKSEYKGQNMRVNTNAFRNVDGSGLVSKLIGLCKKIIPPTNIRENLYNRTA
Chain of TT (tetanus toxin / tetanus toxoid) (P04958 458-1315 limits assumed, chain 2 of 2): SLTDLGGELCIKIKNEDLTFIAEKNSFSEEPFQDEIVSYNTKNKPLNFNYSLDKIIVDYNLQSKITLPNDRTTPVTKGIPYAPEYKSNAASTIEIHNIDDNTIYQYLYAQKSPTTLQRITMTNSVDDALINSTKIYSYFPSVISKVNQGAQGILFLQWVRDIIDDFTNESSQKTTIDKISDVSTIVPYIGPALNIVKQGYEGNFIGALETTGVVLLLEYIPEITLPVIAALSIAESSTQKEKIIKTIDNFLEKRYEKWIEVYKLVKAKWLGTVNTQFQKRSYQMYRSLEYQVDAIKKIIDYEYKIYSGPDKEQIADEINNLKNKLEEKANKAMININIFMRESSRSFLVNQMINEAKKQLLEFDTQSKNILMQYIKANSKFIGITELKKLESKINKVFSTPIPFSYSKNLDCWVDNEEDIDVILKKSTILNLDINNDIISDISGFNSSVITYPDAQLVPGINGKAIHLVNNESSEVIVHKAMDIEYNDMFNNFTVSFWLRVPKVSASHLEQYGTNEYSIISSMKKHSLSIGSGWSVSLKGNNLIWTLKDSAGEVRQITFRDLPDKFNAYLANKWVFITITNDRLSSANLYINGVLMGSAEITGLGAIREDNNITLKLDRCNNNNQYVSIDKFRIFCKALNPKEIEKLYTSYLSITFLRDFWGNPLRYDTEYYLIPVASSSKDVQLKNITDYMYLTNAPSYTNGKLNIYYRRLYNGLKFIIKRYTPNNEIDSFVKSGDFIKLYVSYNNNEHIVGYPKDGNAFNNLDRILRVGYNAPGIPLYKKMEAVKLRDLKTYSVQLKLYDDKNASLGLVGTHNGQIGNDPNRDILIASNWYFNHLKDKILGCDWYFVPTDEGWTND

B1: anti-GM-CSF human IgG1 monoclonal antibody G9 (antibody, V domains shown)
VH: EVQLVESGGGLVQPGGSLRLSCAASGFTFSRHWMHWLRQVPGKGPVWVSRINGAGTSITYADSVRGRFTISRDNANNTLFLQMNSLRADDTALYFCARANSVWFRGLFDYWGQGTPVTVSS
VL: EIVLTQSPVTLSVSPGERVTLSCRASQSVSTNLAWYQQKLGQGPRLLIYGASTRATDIPARFSGSGSETEFTLTISSLQSEDFAVYYCQQYDKWPDTFGQGTKLEIKR
notes: Fully human IgG1 kappa made by a hybridoma from B cells of a PAP patient; also called 10G9; 10G9.1
For B1, the binding result is “no binding”.

B2: anti-GM-CSF human IgG1 monoclonal antibody E10 (antibody, V domains shown)
VH: QVQLEESGGGVVQPGRSLRLSCAASGFTFTNYGMHWVRQAPGKGLEWLALISYDGNRQYYADSVKGRFTVSRDNPNNTLHLEMKSLRAEDSAIYYCARGAGVLLWFGDLSWFDPWGQGTLVTVSS
VL: DIQMTQSPSNLSASVGDRVTITCRASQNINTWLAWYQHKPGKPPKLRIYQASTLESGVPSRFSGSGSGTIFTLTISSLQPDDFGTYYCQQNNSYPYTFGQGTKLEINR
notes: Fully human IgG1 kappa made by a hybridoma from B cells of a PAP patient; also called 4E10; E10.20
Turning to B2, the binding result was “no binding”.

Source of the values: US20080292641A1 (MORPHOTEK, published 2008).
